Test [1] concerns the target recombinant human IL-21 (rhIL-21) (human, UniProt Q9HBE4 30-162, limits assumed). Briefly: cell-based or functional assay.
Test [2] addresses T1, recombinant IL-21Ra-Fc (AcroBiosystems) (human, UniProt Q9HBE5 20-232).
T1 construct: bought; also called rIL-21Rα; rIL-21Ra-Fc; not shown: Fc of the bought reagent, not described
Kind of test: SPR, not shown.

Test [3] has as its target T2, human IL-21 receptor (IL-21R) on cells (human, UniProt Q9HBE5 20-538; P31785 23-369). Kind of test: cell-based or functional assay.
Test [4] has as its target T2, human IL-21 receptor (IL-21R) on cells. Briefly: cell-based or functional assay. The source holds these as a separate data set.
For test [5] the target is unchanged. Kind of test: cell-based or functional assay. The source holds these as a separate data set.
The target is the same in test [6]. Kind of test: cell-based or functional assay. This is another data set of the same source.
The target is the same in test [7]. Kind of test: cell-based or functional assay. The source holds these as a separate data set.

Residue numbers refer to the chain shown, from its start. Like-named read-outs stand apart in the source and are kept apart here.

T2 sequence (Q9HBE5 20-538, chain 1 of 2): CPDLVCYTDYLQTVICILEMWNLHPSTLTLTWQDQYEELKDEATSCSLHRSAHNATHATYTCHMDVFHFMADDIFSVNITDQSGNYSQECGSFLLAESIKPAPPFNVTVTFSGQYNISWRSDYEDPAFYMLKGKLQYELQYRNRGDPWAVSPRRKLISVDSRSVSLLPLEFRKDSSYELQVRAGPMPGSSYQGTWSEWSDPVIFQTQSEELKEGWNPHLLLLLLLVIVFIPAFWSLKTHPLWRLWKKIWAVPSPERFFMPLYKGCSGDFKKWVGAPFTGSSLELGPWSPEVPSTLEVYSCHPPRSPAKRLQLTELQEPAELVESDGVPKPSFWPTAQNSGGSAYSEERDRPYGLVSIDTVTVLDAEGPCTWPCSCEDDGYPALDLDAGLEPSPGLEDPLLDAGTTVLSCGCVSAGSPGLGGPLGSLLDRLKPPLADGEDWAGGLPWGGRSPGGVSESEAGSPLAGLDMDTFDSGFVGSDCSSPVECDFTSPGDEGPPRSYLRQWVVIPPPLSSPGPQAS
T2 sequence (P31785 23-369, chain 2 of 2): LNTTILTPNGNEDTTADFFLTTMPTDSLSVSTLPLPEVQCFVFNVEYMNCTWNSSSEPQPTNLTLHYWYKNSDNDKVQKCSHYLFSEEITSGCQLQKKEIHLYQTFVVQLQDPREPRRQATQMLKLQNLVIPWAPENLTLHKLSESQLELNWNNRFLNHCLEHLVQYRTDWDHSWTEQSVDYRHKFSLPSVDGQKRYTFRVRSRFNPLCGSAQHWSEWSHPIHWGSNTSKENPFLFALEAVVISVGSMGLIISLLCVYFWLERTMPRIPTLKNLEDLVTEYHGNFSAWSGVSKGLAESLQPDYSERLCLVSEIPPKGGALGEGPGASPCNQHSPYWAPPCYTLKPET
T1 sequence (Q9HBE5 20-232): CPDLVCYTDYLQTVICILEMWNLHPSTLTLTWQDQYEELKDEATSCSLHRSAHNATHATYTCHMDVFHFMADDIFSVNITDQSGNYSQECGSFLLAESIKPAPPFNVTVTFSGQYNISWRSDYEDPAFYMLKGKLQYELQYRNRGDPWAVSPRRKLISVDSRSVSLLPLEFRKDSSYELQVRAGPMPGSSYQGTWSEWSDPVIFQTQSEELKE

B1: FYP014 (antibody, human IgG1, V domains shown)
VH: EVQLVESGGGLVKPGGSLRLSCAASGFIFSSYSMNWVRQAPGKGLEWVSSITSGSYYIHYADSVKGRFTISRDNAKNSLYLQMNSLRAEDTAVYYCVRERGWGYYGMDVWGQGTTVTVSS
VL: AIQLTQSPSSLSASVGDRVTITCRASQDIDSALAWYQQKPGKAPKILIHDASSLESGVPSRFSGSGSGTDFTLTISSLQPEDFATYYCQQFNSYPYTFGQGTKLEIK
notes: human IgG1; also called EP3103813A1 clone 366.328.10.63
As to B1, in test [1], the “% pSTAT3+ Jurkat cells, 0.1 nM rhIL-21 + 0 nM antibody” value was found to be 82.7%; the “% pSTAT3+ Jurkat cells, 0.1 nM rhIL-21 + 0.1012 nM antibody” value is 59.4%; the “% pSTAT3+ Jurkat cells, 0.1 nM rhIL-21 + 0.1602 nM antibody” value came to 6.07%; the “% pSTAT3+ Jurkat cells, 0.1 nM rhIL-21 + 0.2536 nM antibody” value was 4.93%. Also, in test [1], the “% pSTAT3+ Jurkat cells, 0.1 nM rhIL-21 + 0.4015 nM antibody” value stood at 4.39%; the “% pSTAT3+ Jurkat cells, 0.1 nM rhIL-21 + 0.6355 nM antibody” value came out at 5.32%; the “% pSTAT3+ Jurkat cells, 0.1 nM rhIL-21 + 1.006 nM antibody” value is 5.9%; the “% pSTAT3+ Jurkat cells, 0.1 nM rhIL-21 + 1.5925 nM antibody” value came to 4.78%. For the same molecule, in test [1], the “% pSTAT3+ Jurkat cells, 0.1 nM rhIL-21 + 2.5209 nM antibody” value is 5.16%; the “% pSTAT3+ Jurkat cells, 0.1 nM rhIL-21 + 3.9906 nM antibody” value worked out at 4.64%; the “% pSTAT3+ Jurkat cells, 0.1 nM rhIL-21 + 6.3171 nM antibody” value turned out to be 3.99%; the “% pSTAT3+ Jurkat cells, 0.1 nM rhIL-21 + 10 nM antibody” value was 3.83%. The binding result in test [2] was “binds”.

B2: PAP722 (bispecific antibody, human IgG1, kappa, lambda, L234A L235A)
heavy 1: EVQLLESGGGLVQPGGSLRLSCAASGFTFSINAMTWVRQAPGKGLEWVSTISGSGFSTYYADSLKGRFTISRDNSKNTLYLQMNSLRAEDTAVYYCAKEVYGDYWGQGTLVTVSSASTKGPSVFPLAPSSKSTSGGTAALGCLVKDYFPEPVTVSWNSGALTSGVHTFPAVLQSSGLYSLSSVVTVPSSSLGTQTYICNVNHKPSNTKVDKRVEPKSCDKTHTCPPCPAPEAAGGPSVFLFPPKPKDTLMISRTPEVTCVVVDVSHEDPEVKFNWYVDGVEVHNAKTKPREEQYNSTYRVVSVLTVLHQDWLNGKEYKCKVSNKALAAPIEKTISKAKGQPREPQVCTLPPSREEMTKNQVSLSCAVKGFYPSDIAVEWESNGQPENNYKTTPPVLDSDGSFFLVSKLTVDKSRWQQGNVFSCSVMHEALHNHYTQKSLSLSPGK
light 1: not shown
heavy 2: QVQLQESGPGLVKPSETLSLTCTVSGGSISSDYWGWIRQPPGKGLEWIGYISSRGSTNYNPSLKRRVTISVDTSRNQFSLKLSSVTAADTAVYYCARSAGVADFDFWGQGTLVTVSSASTKGPSVFPLAPSSKSTSGGTAALGCLVKDYFPEPVTVSWNSGALTSGVHTFPAVLQSSGLYSLSSVVTVPSSSLGTQTYICNVNHKPSNTKVDKRVEPKSCDKTHTCPPCPAPEAAGGPSVFLFPPKPKDTLMISRTPEVTCVVVDVSHEDPEVKFNWYVDGVEVHNAKTKPREEQYNSTYRVVSVLTVLHQDWLNGKEYKCKVSNKALAAPIEKTISKAKGQPREPQVYTLPPCREEMTKNQVSLWCLVKGFYPSDIAVEWESNGQPENNYKTTPPVLDSDGSFFLYSKLTVDKSRWQQGNVFSCSVMHEALHNHYTQKSLSLSPGK
light 2: not shown
Turning to B2, the Δ in test [3] is 4.3. In addition, in test [4], the “EC50B, pSTAT3+ Jurkat PD-1 cells, PD-1 blocked” value (“EC50B, pSTAT3+ Jurkat PD-1 cells” below) turned out to be 1.97 nM and the “EC50NB, pSTAT3+ Jurkat PD-1 cells” value turned out to be 19 pM.

B3: UNY098 (bispecific antibody, human IgG1, kappa, lambda, L234A L235A)
heavy 1: B2 heavy 1
light 1: not shown
heavy 2: B2 heavy 2 with S53Y, R65S, A102T, F106A
light 2: not shown
For B3, in test [5], the “EC50B, pSTAT3+ Jurkat PD-1 cells” value stood at 0.333 nM and the “EC50NB, pSTAT3+ Jurkat PD-1 cells” value turned out to be 7 pM.

B4: GOP758 (bispecific antibody, human IgG1, kappa, lambda, L234A L235A)
heavy 1: B2 heavy 1
light 1: not shown
heavy 2: B2 heavy 2 with Y33F, A102T
light 2: DIQMTQSPSSVSASVGDRVTITCRASQGISSWLAWYQHKPGKAPKLLIYVASSLQGGGGSQGQDRHMIRMRQLIDIVDQLKNYVNDLVPEFLPAPEDVETNCEWSAFSCFQKAQLKSANTGNNERIINVSIKKLKRKPPSTNAGRRQKHRLTCPSCDSYEKKPPKEFLERFKSLLQKMIHQHLSSRTHGSEDSGGGGSSGVPSRFSGSGSGTDFTLTISSLQPEDFATYYCQQANSFPLTFGGGTKVEIKRTVAAPSVFIFPPSDEQLKSGTASVVCLLNNFYPREAKVQWKVDNALQSGNSQESVTEQDSKDSTYSLSSTLTLSKADYEKHKVYACEVTHQGLSSPVTKSFNRGEC
Regarding B4, in test [6], the “EC50B, pSTAT3+ Jurkat PD-1 cells” value is 0.51 nM and the “EC50NB, pSTAT3+ Jurkat PD-1 cells” value amounted to 0.227 nM.

B5: YWW798 (bispecific antibody, human IgG1, kappa, lambda, L234A L235A)
heavy 1: B2 heavy 1
light 1: not shown
heavy 2: B2 heavy 2 with S53Y, R54S, R65S, A102T, F106A
light 2: not shown
B5: in test [5], the “EC50B, pSTAT3+ Jurkat PD-1 cells” value stood at 0.526 nM and the “EC50NB, pSTAT3+ Jurkat PD-1 cells” value stood at 4 pM. The molecule also yielded a Δ in test [3] of 3.45.

B6: VCG677 (bispecific antibody, human IgG1, kappa, lambda, L234A L235A)
heavy 1: B2 heavy 1
light 1: not shown
heavy 2: B2 heavy 2 with Y33F, A102T
light 2: not shown
Regarding B6, in test [6], the “EC50B, pSTAT3+ Jurkat PD-1 cells” value was determined as 2.3 nM and the “EC50NB, pSTAT3+ Jurkat PD-1 cells” value amounted to 39 pM.

B7: ZNP367 (bispecific antibody, human IgG1, kappa, lambda, L234A L235A)
heavy 1: B2 heavy 1
light 1: not shown
heavy 2: B2 heavy 2 with Y33F, A102T
light 2: not shown
Turning to B7, in test [6], the “EC50B, pSTAT3+ Jurkat PD-1 cells” value was found to be 0.97 nM and the “EC50NB, pSTAT3+ Jurkat PD-1 cells” value worked out at 36 pM.

B8: TVU155 (bispecific antibody, human IgG1, kappa, lambda, L234A L235A)
heavy 1: B2 heavy 1
light 1: not shown
heavy 2: B2 heavy 2 with S53Y, R65S, A102T, F106A
light 2: not shown
With B8, in test [5], the “EC50B, pSTAT3+ Jurkat PD-1 cells” value stood at 0.951 nM and the “EC50NB, pSTAT3+ Jurkat PD-1 cells” value was 4 pM. The same molecule had a Δ in test [3] of 2.96.

B9: YCV364 (bispecific antibody, human IgG1, kappa, lambda, L234A L235A)
heavy 1: B2 heavy 1
light 1: not shown
heavy 2: B2 heavy 2 with Y33F
light 2: not shown
In test [3], B9 came in with a Δ of 4.21. Also, in test [4], the “EC50B, pSTAT3+ Jurkat PD-1 cells” value came out at 1.33 nM and the “EC50NB, pSTAT3+ Jurkat PD-1 cells” value worked out at 9 pM.

B10: WBL338 (bispecific antibody)
heavy 1: B2 heavy 1
light 1: not shown
heavy 2: B2 heavy 2 with S53Y, R65S, A102T, F106W
light 2: not shown
On to B10, for which, in test [5], the “EC50B, pSTAT3+ Jurkat PD-1 cells” value was found to be 1.52 nM and the “EC50NB, pSTAT3+ Jurkat PD-1 cells” value turned out to be 3 pM. The same molecule returned a Δ in test [3] of 8.18.

B11: DMT806 (bispecific antibody, human IgG1, kappa, lambda, L234A L235A)
heavy 1: B2 heavy 1
light 1: not shown
heavy 2: not shown
light 2: DIQMTQSPSSVSASVGDRVTITCRASQGISSWLAWYQHKPGKAPKLLIYVASSLQSGVPSRFSGSGSGTDFTLTISSLQPEDFATYYCQQANSFPLTFGGGTKVEIKRTVAAPSVFIFPPSDEQLKSGTASVVCLLNNFYPREAKVQWKVDNALQSGNSQESVTEQDSKDSTYSLSSTLTLSKADYEKHKVYACEVTHQGLSSPVTKSFNRGEC
Regarding B11, in test [7], the “EC50B, pSTAT3+ Jurkat PD-1 cells” value was determined as 12.4 nM and the “EC50NB, pSTAT3+ Jurkat PD-1 cells” value stood at 0.17 nM. Further, the Δ in test [3] is 2.79.

Source of the values: patent EP4671273A1 (Anaveon AG, dated 2025).
